Source: patent US20240270821A1, “GIP/GLP1/GCG TRI-RECEPTOR AGONISTS AND USES THEREOF” (priority 2023, published 2024)

T1: human GIP receptor (human) (UniProt P48546)
T1 sequence (looked up): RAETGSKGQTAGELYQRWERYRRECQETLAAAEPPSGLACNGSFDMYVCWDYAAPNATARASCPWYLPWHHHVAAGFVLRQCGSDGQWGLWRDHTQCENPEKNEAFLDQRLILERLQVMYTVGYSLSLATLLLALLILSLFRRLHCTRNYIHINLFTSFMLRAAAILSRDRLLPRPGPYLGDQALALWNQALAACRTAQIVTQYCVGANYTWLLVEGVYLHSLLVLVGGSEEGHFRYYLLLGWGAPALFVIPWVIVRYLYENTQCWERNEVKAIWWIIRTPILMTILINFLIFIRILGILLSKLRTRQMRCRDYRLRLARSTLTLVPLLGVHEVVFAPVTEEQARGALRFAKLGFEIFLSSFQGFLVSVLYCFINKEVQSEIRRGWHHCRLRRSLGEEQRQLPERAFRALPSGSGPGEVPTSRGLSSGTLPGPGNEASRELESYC


What was measured:
Test in all cases: cell-based or functional assay
hGLP-1R = hGLP-1R (Homo sapiens, UniProt P43220)
[1] = target: T1, human GIP receptor (human)
[2] = target: human glucagon receptor (human) (UniProt P47871)
Sequence of human glucagon receptor (human) (P47871 26-477): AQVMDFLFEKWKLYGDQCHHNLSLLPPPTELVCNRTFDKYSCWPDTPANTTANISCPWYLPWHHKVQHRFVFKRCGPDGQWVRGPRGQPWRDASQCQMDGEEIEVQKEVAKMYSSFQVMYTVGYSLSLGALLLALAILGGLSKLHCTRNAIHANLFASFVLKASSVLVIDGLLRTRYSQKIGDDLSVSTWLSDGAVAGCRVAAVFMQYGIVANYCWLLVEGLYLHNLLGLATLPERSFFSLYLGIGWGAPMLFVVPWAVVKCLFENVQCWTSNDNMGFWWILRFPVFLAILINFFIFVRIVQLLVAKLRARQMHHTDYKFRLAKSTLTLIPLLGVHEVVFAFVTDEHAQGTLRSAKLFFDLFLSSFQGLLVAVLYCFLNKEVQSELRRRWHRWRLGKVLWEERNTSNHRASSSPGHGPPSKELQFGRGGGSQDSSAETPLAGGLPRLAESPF

Sequence of hGLP-1R (P43220 24-463): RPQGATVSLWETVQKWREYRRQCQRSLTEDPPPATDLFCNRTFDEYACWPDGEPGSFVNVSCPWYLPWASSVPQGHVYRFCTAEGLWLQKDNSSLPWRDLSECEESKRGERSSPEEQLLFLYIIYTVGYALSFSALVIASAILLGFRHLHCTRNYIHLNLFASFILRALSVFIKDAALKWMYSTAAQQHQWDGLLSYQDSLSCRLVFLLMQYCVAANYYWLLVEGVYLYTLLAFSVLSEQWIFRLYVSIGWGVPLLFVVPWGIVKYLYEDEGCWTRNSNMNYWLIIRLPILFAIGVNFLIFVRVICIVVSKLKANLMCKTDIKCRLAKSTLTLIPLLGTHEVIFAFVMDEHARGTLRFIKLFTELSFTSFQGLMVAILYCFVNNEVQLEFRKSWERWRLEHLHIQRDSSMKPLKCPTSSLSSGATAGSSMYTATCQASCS

Row | Binder | Relative cAMP EC50 (hGLP-1R) | cAMP Rel EC50 (1% HSA) (hGLP-1R) | Relative cAMP EC50 [1] | cAMP Rel EC50 (1% HSA) [1] | Relative cAMP EC50 [2] | cAMP Rel EC50 (1% HSA) [2] | cAMP Rel EC50 (in the presence of 1% HSA) (hGLP-1R) | cAMP Rel EC50 (in the presence of 1% HSA) [1] | cAMP Rel EC50 (in the presence of 1% HSA) [2] | cAMP Rel EC50, nM (in the presence of 1% HSA) (hGLP-1R) | cAMP Rel EC50, nM (in the presence of 1% HSA) [1] | cAMP Rel EC50, nM (in the presence of 1% HSA) [2]
1 | YXQGTXTSDXXIXLDXKAQXQFIEXLQEGGPSSGEPPPEGTGE (synthetic construct; SITE 2: note = 2-Aminoisobutyric Acid; SITE 6: note = alpha-methyl-2-fluoro-L-phenylalanine; SITE 10: note = 3-(4-Pyridyl)-L-alanine; SITE 11: note = alpha-methyl-L-serine; SITE 13: note = alpha-methyl-leucine; SITE 16: note = L-ornithine; SITE 17: note = Lysine is chemically mo) [Example 529] | 0.467 nM | 24.5 nM | 0.0273 nM | 1.39 nM | 6.59 nM | 398 nM |  |  |  |  |  | 
2 | YXQGTXTSDXXIXLDXKAQXXFIEXLAEGGPSSGEPPPSGTGE (synthetic construct; SITE 2: note = 2-Aminoisobutyric Acid; SITE 6: note = alpha-methyl-2-fluoro-L-phenylalanine; SITE 10: note = 3-(4-Pyridyl)-L-alanine; SITE 11: note = alpha-methyl-L-serine; SITE 13: note = alpha-methyl-leucine; SITE 16: note = L-ornithine; SITE 17: note = Lysine is chemically mo) [Example 545] | 0.602 nM | 40.2 nM | 0.0432 nM | 2.74 nM | 2.71 nM | 180 nM |  |  |  |  |  | 
3 | YXQGTXTSDXXILLDXKAQXXFIEYLIEGGPSSGEPPPEGSEE (non-natural residues; lysine acylated with C18 diacid; C-terminal amide; synthetic construct; SITE 2: note = 2-Aminoisobutyric Acid; SITE 6: note = alpha-methyl-2-fluoro-L-phenylalanine; SITE 10: note = 3-(4-Pyridyl)-L-alanine; SITE 11: note = alpha-methyl-L-serine; SITE 16: note = L-ornithine; SITE 17: note = Lysine is chemically modified through conjugation of the epsi) [Example 603] | 0.688 nM |  | 0.102 nM |  | 5.43 nM |  | 49.5 nM | 4.99 nM | 419 nM |  |  | 
4 | YXQGTXTSDXXILLDXKAQXXFIEYLIEGGPSSGEPPPEGEEE (non-natural residues; C18 diacid-(γGlu)2 on Lys; C-terminal amide; synthetic construct; SITE 2: note = 2-Aminoisobutyric Acid; SITE 6: note = alpha-methyl-2-fluoro-L-phenylalanine; SITE 10: note = 3-(4-Pyridyl)-L-alanine; SITE 11: note = alpha-methyl-L-serine; SITE 16: note = L-ornithine; SITE 17: note = Lysine is chemically modified through conjugation of the epsi) [Example 606] | 0.786 nM |  | 0.17 nM |  | 5.01 nM |  | 53.1 nM | 5.69 nM | 474 nM |  |  | 
5 | YXQGTXTSDXXILLDXKAQXXFIEYLIEGGPSSGEPPPEGAEE (non-natural residues, (γGlu)2-C18 diacid lysine acylation, C-terminal amide; synthetic construct; SITE 2: note = 2-Aminoisobutyric Acid; SITE 6: note = alpha-methyl-2-fluoro-L-phenylalanine; SITE 10: note = 3-(4-Pyridyl)-L-alanine; SITE 11: note = alpha-methyl-L-serine; SITE 16: note = L-ornithine; SITE 17: note = Lysine is chemically modified through conjugation of the epsi) [Example 604] | 0.705 nM |  | 0.161 nM |  | 5.5 nM |  | 51 nM | 4.84 nM | 427 nM |  |  | 
6 | YXQGTXTSDXXILLDXKAQXXFIEYLIEGGPSSGEPPPEGGEE (non-natural residues, acylated Lys ((γGlu)2-C18 diacid), C-terminal amide; synthetic construct; SITE 2: note = 2-Aminoisobutyric Acid; SITE 6: note = alpha-methyl-2-fluoro-L-phenylalanine; SITE 10: note = 3-(4-Pyridyl)-L-alanine; SITE 11: note = alpha-methyl-L-serine; SITE 16: note = L-ornithine; SITE 17: note = Lysine is chemically modified through conjugation of the epsi) [Example 605] | 0.795 nM |  | 0.132 nM |  | 5.49 nM |  | 56.2 nM | 6.69 nM | 353 nM |  |  | 
7 | YXQGTXTSDXXIXLDXKAQXNFIEXLQEGGPSSGEPPPEGT (synthetic construct; SITE 2: note = 2-Aminoisobutyric Acid; SITE 6: note = alpha-methyl-2-fluoro-L-phenylalanine; SITE 10: note = 3-(4-Pyridyl)-L-alanine; SITE 11: note = alpha-methyl-L-serine; SITE 13: note = alpha-methyl-leucine; SITE 16: note = L-ornithine; SITE 17: note = Lysine is chemically mo) [Example 525] | 0.426 nM | 20.2 nM | 0.0351 nM | 2.07 nM | 10 nM | 460 nM |  |  |  |  |  | 
8 | YXQGTFTSDFSKXLDKKAQXAFIEYLLEGGPSSGEPPPGEGX (synthetic construct; SITE 2: note = 2-Aminoisobutyric Acid; SITE 13: note = alpha-methyl-leucine; SITE 17: note = Lysine is chemically modified through conjugation of the epsilon-amino group of the Lysine side chain with (2-[2-(2-Amino-ethoxy)-ethoxy]-acetyl)-(gamma-Glu)-CO-(CH2) 18-CO2H; SITE 20: n) [Example 54] | 3.95 nM |  | 0.502 nM |  | 3.77 nM |  |  |  |  | 1300 nM | 168 nM | 1940 nM
9 | YXQGTFTSDFSKXLDKKAQXAFIEYLLEGGPSSGAPPPSEGX (synthetic construct; SITE 2: note = 2-Aminoisobutyric Acid; SITE 13: note = alpha-methyl-leucine; SITE 17: note = Lysine is chemically modified through conjugation of the epsilon-amino group of the Lysine side chain with (2-[2-(2-Amino-ethoxy)-ethoxy]-acetyl)-(gamma-Glu)-CO-(CH2) 16-CO2H; SITE 20: n) [Example 56] | 4.07 nM |  | 0.315 nM |  | 2.8 nM |  |  |  |  | 167 nM | 30.3 nM | 265 nM
10 | YXQGTXTSDXSILLDKKAQXAFIEYLEEGGPSSGEPPPSGTGE (Aib, αMeF(2F), 4Pal; acylated K; C-terminal amide; synthetic construct; SITE 2: note = 2-Aminoisobutyric Acid; SITE 6: note = alpha-methyl-2-fluoro-L-phenylalanine; SITE 10: note = 3-(4-Pyridyl)-L-alanine; SITE 17: note = Lysine is chemically modified through conjugation of the epsilon-amino group of the Lysine side chain with (gamma-Glu)2-CO-(CH2)1) [Example 607] | 1.15 nM |  | 0.0879 nM |  | 8.91 nM |  | 139 nM | 6.63 nM | 565 nM |  |  | 
11 | YXQGTXTSDXSILLDKKAQXAFIEYLEEGGPSSGEPPPSGTEE (acylated Lys, C-terminal amide, non-natural residues; synthetic construct; SITE 2: note = 2-Aminoisobutyric Acid; SITE 6: note = alpha-methyl-2-fluoro-L-phenylalanine; SITE 10: note = 3-(4-Pyridyl)-L-alanine; SITE 17: note = Lysine is chemically modified through conjugation of the epsilon-amino group of the Lysine side chain with (gamma-Glu)2-CO-(CH2)1) [Example 608] | 1.87 nM |  | 0.124 nM |  | 7.82 nM |  | 201 nM | 8.51 nM | 669 nM |  |  | 
12 | YXQGTXTSDXSILLDKKAQXAFIEYLEEGGPSSGAPPPSGTEE (acylated Lys (γGlu)2-C18 diacid; non-natural residues; C-terminal amide; synthetic construct; SITE 2: note = 2-Aminoisobutyric Acid; SITE 6: note = alpha-methyl-2-fluoro-L-phenylalanine; SITE 10: note = 3-(4-Pyridyl)-L-alanine; SITE 17: note = Lysine is chemically modified through conjugation of the epsilon-amino group of the Lysine side chain with (gamma-Glu)2-CO-(CH2)1) [Example 609] | 1.07 nM |  | 0.0784 nM |  | 6.46 nM |  | 121 nM | 6.19 nM | 647 nM |  |  | 
13 | YXQGTXTSDXXIXLDXKAQXXFIEXLTEGGPSSGEPPPEGTEEE (acylated Lys (γGlu)2-C18 diacid; non-natural residues; C-terminal amide; synthetic construct; SITE 2: note = 2-Aminoisobutyric Acid; SITE 6: note = alpha-methyl-2-fluoro-L-phenylalanine; SITE 10: note = 3-(4-Pyridyl)-L-alanine; SITE 11: note = alpha-methyl-L-serine; SITE 13: note = alpha-methyl-leucine; SITE 16: note = L-ornithine; SITE 17: note = Lysine is chemically mo) [Example 598] | 0.886 nM |  | 0.0927 nM |  | 8.79 nM |  | 47.3 nM | 3.49 nM | 457 nM |  |  | 
